From paper doi:10.1101/2020.06.04.133876 (bioRxiv, 2020) come the findings set out here.

The chains are these.
B1: OtDUBGEF (residues 548-759), His-tagged construct (domain or fragment)
chain: ERLVKKVTSNLETELKFFKGRLVQELMQIVKNENGRIDHTSKNWQESASVLLNSQEKGAVSLAEVERAVSKMTQKLRDQKVSEEEVVNIESKLKFERASLEAKLFDDNEIKELINKRIKEDALRAIPFLGSDSESFMEKISPFVKLPDDSYSLLKANDKHHPFQNILYSNALKFFADSSDIGYLNDDSLKNLTPENLNAFEQAVAADIDKLM
notes: source: E. coli BL21(DE3), purified (Ni-NTA, Superdex 75)

The target of test [1] is T1, Rac1 (residues 1-177), recombinant (human, UniProt P63000 1-177). The test is described as follows: ITC. As to conditions: both partners purified.
Test [2] concerns the target T1, Rac1 (residues 1-177), recombinant. Put plainly: cell-based or functional assay.
Test [3] shares this target. The test is described as follows: pull-down; GST-tagged OtDUB fragments (20 μM) as bait and Rac1 (60 µM) as prey, 50 mM Tris-HCl pH 7.5, 150 mM NaCl, 0.1 mM TCEP, glutathione resin 1 h at 4°C; Coomassie. As to conditions: both partners purified.
In test [4] the target is B1. The test is described as follows: ITC. As to conditions: both partners purified.

For B1, the Kd in test [1] is about 5 µM. Besides, the “kcat/KM of BODIPY-GDP dissociation from Rac1 with increasing amounts of OtDUBGEF” value in test [2] was 260000 M⁻¹ s⁻¹.

B2: GST-OtDUBGEF N590A/E593A (domain or fragment)
chain: ERLVKKVTSNLETELKFFKGRLVQELMQIVKNENGRIDHTSKAWQASASVLLNSQEKGAVSLAEVERAVSKMTQKLRDQKVSEEEVVNIESKLKFERASLEAKLFDDNEIKELINKRIKEDALRAIPFLGSDSESFMEKISPFVKLPDDSYSLLKANDKHHPFQNILYSNALKFFADSSDIGYLNDDSLKNLTPENLNAFEQAVAADIDKLM
notes: OtDUB (ORF OTT_1962), Orientia tsutsugamushi Ikeda isolate; also called switch II (N590A/E593A) mutant; source: E. coli Rosetta DE3, purified (glutathione resin)
Take B2: in test [3], the binding result is given as “binds”.

B3: GST-OtDUBGEF E561A (domain or fragment)
chain: ERLVKKVTSNLETALKFFKGRLVQELMQIVKNENGRIDHTSKNWQESASVLLNSQEKGAVSLAEVERAVSKMTQKLRDQKVSEEEVVNIESKLKFERASLEAKLFDDNEIKELINKRIKEDALRAIPFLGSDSESFMEKISPFVKLPDDSYSLLKANDKHHPFQNILYSNALKFFADSSDIGYLNDDSLKNLTPENLNAFEQAVAADIDKLM
notes: OtDUB (ORF OTT_1962), Orientia tsutsugamushi Ikeda isolate; also called switch I (E561A) mutant; source: E. coli Rosetta DE3, purified (glutathione resin)
Regarding B3, the binding result in test [3] was “binds”.

B4: Cdc42 (residues 1-177), recombinant (domain or fragment)
chain: not shown
With B4, in test [4], the Kd was about 16 µM.

B5: GST-OtDUB C-terminal truncation (275-913) (domain or fragment)
chain: SAEVSSKEELYVPKINQVEESLEAQLKYINEHIASQLMQIVKNSNGEIDCNSSNFQEEVSSLLNSRSKETTSLATIEQNFNEIIQQLRKEKVNEERVSAIELQLKANRAVLEAKLSNTEDVKSLVNQKIKEETLQAIPFFGNAAERANFKKHLAHFVKLPDNSYSLLKQKEKRHPFCNIIGANAVKFFSPQSNAVYLNTSAYNQITSGNLKAFEAAVTTDINNLMLKEAAVTIDAVSPNKEAVESGKDLSKTDELAELKEVKSNLETELKILKERLVKKVTSNLETELKFFKGRLVQELMQIVKNENGRIDHTSKNWQESASVLLNSQEKGAVSLAEVERAVSKMTQKLRDQKVSEEEVVNIESKLKFERASLEAKLFDDNEIKELINKRIKEDALRAIPFLGSDSESFMEKISPFVKLPDDSYSLLKANDKHHPFQNILYSNALKFFADSSDIGYLNDDSLKNLTPENLNAFEQAVAADIDKLMSRDVTLNVSDLKSYVANSPNPDLIADYLALEWQIHTPGLKGLYDDLQASHQLQLNELENKHAKQLLSDLANLSKLPSMRGILPEFKDEFYNEIDKKPEERSVEYKNFINKCSELPDAMLQPAKCSAQALLEFNKYERDLNSFKQGVFCAIDNYK
notes: OtDUB (ORF OTT_1962), Orientia tsutsugamushi Ikeda isolate; pGEX6P1 construct; source: E. coli Rosetta DE3, purified (glutathione resin)
Turning to B5, in test [3], the binding result is “binds”.
